Assay results taken from patent US20110200585A1.
Positions count from the first letter of the chain named. Where “and” joins values, the source holds several entries; their conditions need not be identical. Equal values may be shown once. One block for each binder: values may come before it.

Key:
human CD127 ECD (human) [1] = biological target: human CD127 ECD (human) (UniProt P16871); assay: SPR, BIAcore 3000; antibody captured on anti-human IgG (Fc), CD127 ECD 16-512 nM as analyte, 1:1 Langmuir fit
[2] = biological target: IL7R (analyte of the CDRH3 variant assays) (Homo sapiens (Human)) (UniProt P16871); assay: SPR, BIAcore 3000; antibody captured on anti-human IgG (CM5), IL7R 1-64 nM as analyte, 1:1 fit, 25 C
[3] = biological target: IL7R (analyte of the CDRH3 variant assays) (Homo sapiens (Human)) (UniProt P16871); assay: SPR, BIAcore T100; antibody captured on anti-human IgG (CM3), IL-7R 1-256 nM as analyte, 1:1 fit, 25 C
[4] = biological target: IL7R (analyte of the CDRH3 variant assays) (Homo sapiens (Human)) (UniProt P16871); assay: SPR competition, BIAcore; IL7R 64 nM pre-incubated 3 h with antibody 0.25-256 nM, run over immobilised IL7 (competitor); run 2
[5] = biological target: IL7R (analyte of the CDRH3 variant assays) (Homo sapiens (Human)) (UniProt P16871); assay: SPR competition, BIAcore; IL7R 64 nM pre-incubated 3 h with antibody 1-256 nM, run over immobilised IL7 (competitor); run 1
human CD127 ECD (human) [6] = biological target: human CD127 ECD (human) (UniProt P16871); assay: SPR, BIAcore 3000; antibody captured on anti-human IgG (Fc), CD127 ECD as analyte; the column head says M, but kd/ka gives 1.9e-8 M, so nM is meant
human CD127 ECD (human) [7] = biological target: human CD127 ECD (human) (UniProt P16871); assay: SPR, BIAcore 3000; antibody captured on anti-human IgG (Fc), CD127 ECD as analyte; the column head says M, but kd/ka gives 1.5e-8 M, so nM is meant
human CD127 ECD (human) [8] = biological target: human CD127 ECD (human) (UniProt P16871); assay: SPR, BIAcore 3000; antibody captured on anti-human IgG (Fc), CD127 ECD as analyte; the column head says M, but kd/ka gives 2.8e-8 M, so nM is meant
human CD127 ECD (human) [9] = biological target: human CD127 ECD (human) (UniProt P16871); assay: SPR, BIAcore 3000; antibody captured on anti-human IgG (Fc), CD127 ECD as analyte; the column head says M, but kd/ka gives 1.7e-8 M, so nM is meant

Kd [2]: 0.582 nM | koff [2]: 0.000196 s⁻¹ | kon [2]: 337000 M⁻¹ s⁻¹ | Kd [3]: 0.034 nM | koff [3]: 3.06e-05 s⁻¹ | kon [3]: 910000 M⁻¹ s⁻¹ | IC50 [4]: 14.9 nM and 15.2 nM | IC50 [5]: 14.8 nM
B3: BPC4401 (antibody, V domains shown)
VH: QVQLVQSGAEVKKPGASVKVSCKASGYTFTGYTMNWVRQAPGQGLEWMGLINPYNGVTSYNQKFKGRVTLTRDTSISTAYMELSRLRSDDTAVYYCARGDGNYWYHDVWGQGTTVTVSS
VL: EIVLTQSPATLSLSPGERATLSCSASSSVTYMHWYQQKPGQAPRPLIYEISKLASGIPARFSGSGSGTDFTLTISSLEPEDFAVYYCQEWNYPYTFGGGTKVEIK

Kd [2]: 0.668 nM | koff [2]: 0.0002 s⁻¹ | kon [2]: 300000 M⁻¹ s⁻¹ | Kd [3]: 0.04 nM | koff [3]: 3.32e-05 s⁻¹ | kon [3]: 826000 M⁻¹ s⁻¹ | IC50 [5]: 15.2 nM
B4: BPC4402 (antibody, V domains shown)
VH: B3 VH with H106I
VL: B3 VL

koff (human CD127 ECD (human) [1]): 0.00037 s⁻¹ | kon (human CD127 ECD (human) [1]): 24300 M⁻¹ s⁻¹ | Kd (human CD127 ECD (human) [7]): 15 nM
B6: 6A3 H4-61_8L27 (antibody, V domains shown)
VH: QVQLQESGPGLVKPSETLSLTCTVSGYSVTTDYAWNWIRQPPGKGLEWIGYIFYSGSTTYTPSLKSRITISRDTSKNQFSLKLSSVTAADTAVYYCARGGYDVNYFDYWGQGTTVTVSS
VL: DIQMLQSPSSLSASVGDRVTITCLASQTIGYWLAWYQQKPGKAPKLLIYAATRLADGVPSRFSGSGSGTMFTLTISSLQPEDFATYYCQQFFSYPWTFGGGTKVEIK

koff (human CD127 ECD (human) [1]): 0.00104 s⁻¹ | kon (human CD127 ECD (human) [1]): 37700 M⁻¹ s⁻¹ | Kd (human CD127 ECD (human) [8]): 28 nM
B7: 6A3 H4-61_7L27 (antibody, V domains shown)
VH: B6 VH with I68V
VL: B6 VL

koff (human CD127 ECD (human) [1]): 0.00122 s⁻¹ | kon (human CD127 ECD (human) [1]): 69900 M⁻¹ s⁻¹ | Kd (human CD127 ECD (human) [9]): 18 nM
B8: 6A3 H4-61_9L27 (antibody, V domains shown)
VH: B6 VH with I49M
VL: B6 VL

More lines, now with the values behind:

B1: 1A11 H3L6 (antibody, V domains shown)
VH: B3 VH with H106F
VL: B3 VL with L46W, I57V, F70Y
Kd (human CD127 ECD (human) [1]): 155 nM | koff (human CD127 ECD (human) [1]): 0.00282 s⁻¹ | kon (human CD127 ECD (human) [1]): 18200 M⁻¹ s⁻¹

B2: 1A11 H3L5 (antibody, V domains shown)
VH: B3 VH with H106F
VL: B3 VL with L46W, F70Y
Kd (human CD127 ECD (human) [1]): 207 nM | koff (human CD127 ECD (human) [1]): 0.00607 s⁻¹ | kon (human CD127 ECD (human) [1]): 29400 M⁻¹ s⁻¹

B5: 6A3 H4-61_6L27 (antibody, V domains shown)
VH: B6 VH with T30S, I68V
VL: B6 VL
Kd (human CD127 ECD (human) [6]): 19 nM | koff (human CD127 ECD (human) [1]): 0.000299 s⁻¹ | kon (human CD127 ECD (human) [1]): 16000 M⁻¹ s⁻¹

B9: 1A11 Chimera (antibody, human IgG1, V domains shown)
VH: EVQLQQSGPELLKPGASMKISCKASGYSFTGYTMNWVKQSHGKNLEWIGLINPYNGVTSYNQKFKGKATLTVAKSSSTAYMELLSLTSEDSAVYYCARGDGNYWYFDVWGAGTTVTVSS
VL: EIVLTQSPAITAASLGQKVTITCSASSSVTYMHWYQQKSGTSPKPWIYEISKLASGVPVRFSGSGSGTSYSLTISSMEAEDAAIYYCQEWNYPYTFGGGTKLEIK
Kd (human CD127 ECD (human) [1]): 3.22 nM | koff (human CD127 ECD (human) [1]): 0.000298 s⁻¹ | kon (human CD127 ECD (human) [1]): 92600 M⁻¹ s⁻¹
